The results in this text go back to patent publication US20190105403A1 (STCUBE, published 2019).

Experiment [1] deals with T1, human PD-L1 4NQ (N35Q/N192Q/N200Q/N219Q), fully unglycosylated variant, expressed on BT549 cells (human, UniProt Q9NZQ7 19-290).
T1 construct: In the Western blots the protein was in cell lysate; also called 4NQ PD-L1; unglycosylated PD-L1 4NQ mutant
T1 chain: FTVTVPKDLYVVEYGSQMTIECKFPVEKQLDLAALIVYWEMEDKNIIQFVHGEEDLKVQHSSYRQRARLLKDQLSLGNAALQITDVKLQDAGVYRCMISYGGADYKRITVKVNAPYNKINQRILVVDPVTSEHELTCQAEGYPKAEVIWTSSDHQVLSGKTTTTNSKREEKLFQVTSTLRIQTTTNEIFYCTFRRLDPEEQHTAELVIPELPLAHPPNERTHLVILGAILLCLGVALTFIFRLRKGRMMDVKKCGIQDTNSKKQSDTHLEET
Description: flow cytometry on BT549 cells overexpressing PD-L1 4NQ (mixed with WT cells), FITC secondary antibody. On the technique in general: A flow cytometer gives signals particle by particle.

Experiment [2] deals with T2, human PD-L1 wild type (glycosylated), expressed on cells (human, UniProt Q9NZQ7 19-290, N-glycosylated at N35, N192, N200 and N219).
T2 construct: Endogenous on NCI-H226, A431 and MDA-MB231 cells and transfected into 4T1 cells in the functional assays; In the Western blots the protein was in cell lysate; also called PD-L1 WT; WT PD-L1
T2 sequence (Q9NZQ7 19-290): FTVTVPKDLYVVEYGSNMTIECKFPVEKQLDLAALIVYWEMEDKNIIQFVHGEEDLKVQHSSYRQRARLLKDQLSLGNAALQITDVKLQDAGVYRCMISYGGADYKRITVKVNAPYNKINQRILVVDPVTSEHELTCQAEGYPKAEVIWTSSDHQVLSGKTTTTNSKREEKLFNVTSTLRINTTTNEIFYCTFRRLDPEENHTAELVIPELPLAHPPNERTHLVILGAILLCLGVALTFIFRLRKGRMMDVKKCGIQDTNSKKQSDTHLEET
As to the kind of experiment: flow cytometry on BT549 cells overexpressing PD-L1 WT (biotin labeled, mixed with 4NQ cells), FITC secondary antibody.

B1: STM115 MAb (antibody, V domains shown)
VH: EVMLVESGGALVEPGGSLKLSCVASGFTFSNYAMSWVRQTPERRLEWVASITNGGTYTYYPDSVKGRFTISRDNARNTLYLQMSSLRSEDTAMYFCARPLHYYGGSHFDYWGQGTTLTVSS
VL: EIVLTQSPALMAASPGEKVTITCSVSSSISSNTLHWYQQKSEISPKPWIYGTSNLASGVPVRFSGSGSGTSYSLTISSMEAEDAATYYCQQWSSYPLTFGGGTKLEIK
For the molecule B1, the MFI in experiment [1] turned out to be 21.3; in experiment [2] it was 51.1.

B2: STM004 MAb (antibody, V domains shown)
VH: QVQLQQSDAELVKPGASVKISCKASGYTFSDHAIHWVKQRPEQGLEWIGCISPGSGDITYNEKFKGKATLTADKSSSTAYMQLNSLTSEDSAVYFCKRWGLDYWGQGTTLTVSS
VL: DIVLTQSPASLAVSLGQRATISCRASESVEFYGTTLMQWYQQKPGQPPRLLIYAASNVESGVPARFSGSGSGTDFSLNIHPVEDDDIAMYFCQQSRKVPYTFGGGTKLEIK
Consider B2, for which the MFI in experiment [1] stood at 8.7; in experiment [2], 42.5.

B3: STM108 MAb (antibody, V domains shown)
VH: EVMLVESGGALVKPGGSLKLSCAASGFSLSNYVMSWVRQTPEKRLEWVATISSGGRYIYYTDSVKGRFTISRDNARNTLYLQMSSLRSEDTAMYYCARDGSTLYYFDYWGQGTTLTVSS
VL: QTVLTQSPAIMSASPGEKVTMTCSASSSVDYMYWYQQKPGSSPRLLIYDTSNLASGVPVRFSGSGSGTSYSLTISRMEAEDAATYYCQQWSSSPPITFGTGTKVELK
In the case of B3, the results for the MFI in experiment [1] and in experiment [2] were 27.6 and 117, respectively.

B4: STM073 MAb (antibody, V domains shown)
VH: EVQLVESGGALVKPGGSLKLSCAASGFTFSNSAMSWVRQTPEKRLEWVATISSAGSYTYYPDSVKGRFTISRDNAKNTLYLQMSSLRSEDTALYYCTRHYDYYFDYWGQGATLTVSS
VL: QIVLTQSPAIMSASPGEKVTLTCSASSSVSYMHWYQQKPGSSPRLVIYDTSNLASGVPVRFSGSGSGTSYSLTVSRMEAEDAATYYCQQWSDHPLTFGAGTKLELK
As to B4, the results for the MFI in experiment [1] and in experiment [2] were 12.2 and 63.9, respectively.
